Test results published in US20180194839A1 (Novartis, published 2018).

Experiments:
Test in all cases: ELISA, coated cytokine;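 further: antibodies incubated 3 h at room temperature on cytokine-coated plates, binding read out with alkaline phosphatase-conjugated anti-species IgG secondary antibodies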
[1] = target: T1, recombinant mouse IL-18 (MBL Cat#B004-5) (mouse, UniProt P70380 36-192)
T1 construct: also called mIL-18
T1 sequence (looked up): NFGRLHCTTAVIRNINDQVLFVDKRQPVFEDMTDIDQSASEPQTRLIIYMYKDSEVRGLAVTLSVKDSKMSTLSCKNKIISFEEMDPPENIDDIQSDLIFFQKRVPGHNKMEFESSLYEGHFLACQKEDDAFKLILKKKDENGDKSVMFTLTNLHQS

[2] = target: T2, recombinant human IL-13 (Novartis) (human, UniProt P35225 35-146, limits assumed)
T2 construct: also called huIL-13

[3] = target: T3, recombinant mouse IL-6 (R&D Systems Cat#406-ML-010/CF) (mouse, UniProt P08505 25-211)
T3 construct: coated at 0.5 µg/ml; also called mIL-6
T3 sequence (looked up): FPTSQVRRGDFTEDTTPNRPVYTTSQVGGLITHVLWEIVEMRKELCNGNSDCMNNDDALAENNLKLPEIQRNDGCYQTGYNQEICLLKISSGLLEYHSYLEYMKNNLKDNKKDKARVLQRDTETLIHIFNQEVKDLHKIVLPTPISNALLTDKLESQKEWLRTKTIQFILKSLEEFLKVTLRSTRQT

[4] = target: T4, recombinant human IL-20 (Novartis) (human, UniProt Q9NYY1 25-176, limits assumed)
T4 construct: also called huIL-20
T4 sequence (looked up): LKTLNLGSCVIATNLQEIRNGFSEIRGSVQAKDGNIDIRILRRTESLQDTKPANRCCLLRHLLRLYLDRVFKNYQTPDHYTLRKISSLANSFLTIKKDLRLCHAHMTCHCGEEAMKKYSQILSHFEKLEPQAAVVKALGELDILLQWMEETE

[5] = target: T5, recombinant rat TNFα (R&D Systems Cat#510-RT/CF) (rat, UniProt P16599 80-235)
T5 sequence (looked up): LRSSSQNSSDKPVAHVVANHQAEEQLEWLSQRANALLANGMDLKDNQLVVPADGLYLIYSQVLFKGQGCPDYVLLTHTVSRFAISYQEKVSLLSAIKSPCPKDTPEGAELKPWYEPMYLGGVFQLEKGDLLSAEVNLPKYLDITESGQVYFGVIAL

[6] = target: T6, recombinant rat IL-4 (R&D Systems Cat#504-RL/CF) (rat, UniProt P20096 25-147, limits assumed)
T6 sequence (looked up): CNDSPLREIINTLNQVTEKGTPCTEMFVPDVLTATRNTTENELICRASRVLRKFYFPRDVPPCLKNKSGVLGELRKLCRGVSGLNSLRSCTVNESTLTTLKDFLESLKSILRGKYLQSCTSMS

[7] = target: T7, recombinant mouse IL-1β (R&D Systems Cat#401-ML) (mouse, UniProt P10749 118-269)
T7 construct: also called mIL-1β
T7 sequence (looked up): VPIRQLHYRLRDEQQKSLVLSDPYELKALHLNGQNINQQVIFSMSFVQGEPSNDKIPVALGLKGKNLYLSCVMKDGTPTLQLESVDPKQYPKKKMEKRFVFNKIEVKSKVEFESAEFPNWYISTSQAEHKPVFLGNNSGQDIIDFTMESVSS

[8] = target: T8, recombinant human IL-8 (R&D Systems Cat#208-IL-010/CF) (human, UniProt P10145 28-99)
T8 construct: also called huIL-8
T8 sequence (looked up): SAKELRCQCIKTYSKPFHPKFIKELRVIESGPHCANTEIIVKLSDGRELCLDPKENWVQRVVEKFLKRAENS

[9] = target: T9, recombinant mouse IL-2 (R&D Systems 402-ML-020/CF) (mouse, UniProt P04351 21-169)
T9 construct: also called mIL-2
T9 sequence (looked up): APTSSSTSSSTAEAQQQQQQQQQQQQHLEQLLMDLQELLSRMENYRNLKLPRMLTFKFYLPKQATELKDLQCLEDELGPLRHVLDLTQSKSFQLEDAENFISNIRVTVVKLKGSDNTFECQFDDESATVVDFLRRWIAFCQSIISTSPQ

[10] = target: T10, recombinant rat IL-6 (R&D Systems Cat#506-RL-010) (rat, UniProt P20607 25-211)
T10 sequence (looked up): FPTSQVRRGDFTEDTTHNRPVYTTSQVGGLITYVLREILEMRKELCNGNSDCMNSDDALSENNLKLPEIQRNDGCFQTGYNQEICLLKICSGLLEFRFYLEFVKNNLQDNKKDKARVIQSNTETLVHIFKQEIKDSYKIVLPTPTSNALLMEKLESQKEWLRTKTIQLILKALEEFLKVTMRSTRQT

[11] = target: T11, recombinant human IL-4 (R&D Systems Cat#204-IL/CF) (human, UniProt P05112 25-153)
T11 construct: also called huIL-4
T11 sequence (looked up): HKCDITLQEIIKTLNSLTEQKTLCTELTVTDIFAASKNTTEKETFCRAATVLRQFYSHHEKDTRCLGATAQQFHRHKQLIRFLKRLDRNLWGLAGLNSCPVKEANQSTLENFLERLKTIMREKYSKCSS

[12] = target: T12, recombinant human IFNγ (Roche) (human, UniProt P01579 24-166, limits assumed)
T12 construct: also called huIFNγ
T12 sequence (looked up): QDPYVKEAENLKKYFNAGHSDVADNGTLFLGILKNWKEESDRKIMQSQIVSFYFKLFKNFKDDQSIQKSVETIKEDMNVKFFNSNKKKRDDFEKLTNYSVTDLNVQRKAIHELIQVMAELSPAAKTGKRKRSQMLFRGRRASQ

[13] = target: T13, recombinant human TGFβ2 (Novartis) (human, UniProt P61812 303-414)
T13 construct: also called huTGFβ2
T13 sequence (looked up): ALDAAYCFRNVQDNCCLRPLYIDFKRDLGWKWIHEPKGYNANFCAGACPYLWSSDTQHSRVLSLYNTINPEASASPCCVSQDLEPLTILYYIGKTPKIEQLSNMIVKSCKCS

[14] = target: T14, recombinant mouse TNFα (R&D Systems Cat#410-MT) (mouse, UniProt P06804 80-235)
T14 construct: coated at 0.5 µg/ml; also called mTNFα
T14 sequence (looked up): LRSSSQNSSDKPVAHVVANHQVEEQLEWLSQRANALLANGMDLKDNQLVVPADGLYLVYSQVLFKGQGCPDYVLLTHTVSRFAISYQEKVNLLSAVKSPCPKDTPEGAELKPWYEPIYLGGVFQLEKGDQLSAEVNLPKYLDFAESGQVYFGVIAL

Measured: binding result

T2 sequence (P35225 35-146 limits assumed): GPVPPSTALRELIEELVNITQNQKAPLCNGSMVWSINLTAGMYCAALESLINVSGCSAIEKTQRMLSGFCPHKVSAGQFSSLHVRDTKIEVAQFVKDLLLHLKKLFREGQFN

B1: XAB4 (antibody, human IgG1, kappa, V domains shown)
VH: EVQLVESGGDLVQPGGSLRLSCAASGFTFSSYWMSWVRQAPGKGLEWVANIKQDGSEKYYVDSVKGRFTISRDNAKNSLYLQMNSLRAEDTAVYYCARDRGSLYYWGQGTLVTVSS
VL: AIQLTQSPSSLSASVGDRVTITCRPSQGINWELAWYQQKPGKAPKLLIYDASSLEQGVPSRFSGSGSGTDFTLTISSLQPEDFATYYCQQFNSYPLTFGGGTKVEIKR
notes: also called MB435 N56Q
no binding (tested: 10 µg/ml): [1] | [2] | [3] | [4] | [5] | [6] | [7] | [8] | [9] | [10] | [11] | [12] | [13] | [14]

B2: XAB1 (antibody, human IgG1, kappa, V domains shown)
VH: EVQLVESGGDLVQPGGSLRLSCAASGFTFSSYWMSWVRQAPGKGLEWVANIKQDGSEKYYVDSVKGRFTISRDNAKNSLYLQMNSLRAEDTAVYYCARDRGSLYYWGQGTLVTVSS
VL: AIQLTQSPSSLSASVGDRVTITCRPSQGIISALAWYQQKPGKAPKLLIYDASSLENGVPSRFSGSGSGTDFTLTISSLQPEDFATYYCQQFNSYPLTFGGGTKVEIKR
notes: human IgG1/kappa monoclonal antibody; also called parental XAB1; XAB1 IgG
no binding (tested: 10 µg/ml): [1] | [2] | [3] | [4] | [5] | [6] | [7] | [8] | [9] | [10] | [11] | [12] | [13] | [14]
